In the DeepSol protein solubility set:

Experiment: soluble on expression in E. coli; label from the status in PepcDB or PDB records

Q: Which “soluble on expression in E. coli” value does the source give for “MRQHKTKYLHQYELQALLNELNLNNEVNWDYFILLIAKTGIRFAEALGVTPDDFDFAHQTLSISKTWDYKSNKSDFAPTKNNSSVRKVPLDWQTVIQFSQLTKKLPEDQPIFVQAKVYNDTVNHYLERLCKHASIPVISVHGLRHTHASLLLYAGVSIASVARRLGHSNMTTTQQTYLHIIQELENQDNDKVMKHLASLILEHHHHHH” here?
A: Its value is “soluble”.

Q: With “MLNQELELSLNMAFARAREHRHEFMTVEHLLLALLSNPSAREALEACSVDLVALRQELEAFIEQTTPVLPASEEERDTQPTLSFQRVLQRAVFHVQSSGRNEVTGANVLVAIFSEQESQAAYLLRKHEVSRLDVVNFISHGTRKDEPTQSSDPGSQPNSEEQAGGEERLENFTTNLNQLARVGGIDPLIGREKELERAIQVLCRRRKNNPLLVGESGVGKTAIAEGLAWRIVQGDVPEVMADCTIYSLDIGSLLAGTKYRGDFEKRFKALLKQLEQDTNSILFIDEIHTIIGAGAASGGQVDAANLIKPLLSSGKIRVIGSTTYQEFSNIFEKDRALARRFQKIDITEPSIEETVQIINGLKPKYEAHHDVRYTAKAVRAAVELAVKYINDRHLPDKAIDVIDEAGARARLMPVSKRKKTVNVADIESVVARIARIPEKSVSQSDRDTLKNLGDRLKMLVFGQDKAIEALTEAIKMARAGLGHEHKPVGSFLFAGPTGVGKTEVTVQLSKALGIELLRFDMSEYMERHTVSRLIGAPPGYVGFDQGGLLTDAVIKHPHAVLLLDEIEKAHPDVFNILLQVMDNGTLTDNNGRKADFRNVVLVMTTNAGVRETERKSIGLIHQDNSTDAMEEIKKIFTPEFRNRLDNIIWFDHLSTDVIHQVVDKFIVELQVQLDQKGVSLEVSQEARNWLAEKGYDRAMGARPMARVIQDNLKKPLANELLFGSLVDGGQVTVALDKEKNELTYGFQSAQKHKAEAAH” as the sequence, how does the “soluble on expression in E. coli” value read?
A: The value was “soluble”.

Q: For “MGSDKIHHHHHHMEEVIKLNSVDQYNKMYGLETLHPLVTVVDLSKATVFPTHFTLNYGLYALFLKQTKCGDLRYGRQMYDYQEGTVTSFAPGQVVEVKLNDGVRPMSHGILFHPDLIRGTSLGQEIKHYSFFSYASNEALHLSDDEKKIFQDCLDKVQQELSRPIDKHSKRLIARNIELLLDYCMRFYERQFVTRSKVNKDVLMKFEDLLDVYFQSEQSPNEKLPTVKYFADKVNLSSNYFGDLIKKETGKTAQEYIQGKIINIAKERILASEKTVSEIAYELGFQYPQHFTRIFKKVVGCTPTEYRVIQV”, which “soluble on expression in E. coli” value is on record?
A: Its value is “not soluble”.

Q: Which “soluble on expression in E. coli” value does the source give for “MLVLFEVAAGYAVFKLSNEKKLKNVDNIWEEFSTAEKAQENLQLVSFKKFKTTAGAVEATSEITEGKLSKTLKKLLKSSVDETEKLAVGDAKLGNLIKEKLSLNCVHDSSINELMRGVRAHIEDLLAEHKEEMNAMNLAVAHSLARYKVKFNPEKIDTMIVQAVSLLDDLDKELNNYVMRVREWYGWHFPELGKTIQDHQAYAKIIKAIGMRQNCINTDLSSILPEELEEKVKEDAEISMGTDISDIDLIHIKGLCDQVIELSAYRAQLFDYLKNRMTALAPNLTVLLGELVGARLISHAGSLVSLAKAPASTIQILGAEKALFRALKTKKDTPKYGLIYHAQLITQAPPKVKGKMARKLAAKCSLATRIDALSDESATNEIGIECRAALENVLRTESERGPSKNKSFGSHRHDKYEFKSETYEYDASADTPASRKHKRFDDNEESTNAIKKMKIEEVKEEDEAEPEKKKKKKEKKAKKADTDSDEE” here?
A: Its value is “not soluble”.

Q: With “SDHGSNEIDRHLTPGASPAYIGINKEKKLLYTANYHTAVLSVFQYSNSGKLALVAQTTHKAESLGPRPEQVDGPHPHFFDETPAGNLVSCDLGNDTVDFYRLENNELKHLAQYKNEAGFGDRHIVFSKDGNYFYVVGELSSQINVVKFNENTWEFEDIATYKTIPEDFTEHNGAAALYITNDGKYIYNSNRGHNSITVFKVNDDHTLSLIQRISTFGDFPRDFNWDETQKYVVAANQNT” as the sequence, how does the “soluble on expression in E. coli” value read?
A: The value was “soluble”.

Q: For “SYYHHHHHHLESTSLYKKAGLKIKAVGAYSAKQPLEPMDITRREPGPNDVKIEIAYCGVCHSDLHQVRSEWAGTVYPCVPGHEIVGRVVAVGDQVEKYAPGDLVGVGCIVDSCKHCEECEDGLENYCDHMTGTYNSPTPDEPGHTLGGYSQQIVVHERYVLRIRHPQEQLAAVAPLLCAGITTYSPLRHWQAGPGKKVGVVGIGGLGHMGIKLAHAMGAHVVAFTTSEAKREAAKALGADEVVNSRNADEMAAHLKSFDFILNTVAAPHNLDDFTTLLKRDGTMTLVGAPATPHKSPEVFNLIMKRRAIAGSMIGGIPETQEMLDFCAEHGIVADIEMIRADQINEAYERMLRGDVKYRFVIDNRTLTD”, which “soluble on expression in E. coli” value is on record?
A: Its value is “soluble”.

Q: For “MGSDKIHHHHHHMKYDVAVYIGRFQPFHNGHLSVVQRSLEVAQHLLILTGSHLASPDTRNPWSSEEREEMIRAALPANWQKRVSFIPIRDHLYSDNLWLTEIQQKVLEEAGEEARIVLVGHRKDRSSYYLDLFPQWDFLEVPRLEAVHSTAIRDAYFSGSEESNYAAALPAGVADYLTAYQQTGRYQWLRDEADYIKGYRQAWAVAPYAPTFVTTDAIVIQSGHVLVVRRKARPGKGLIALPGGYIQQDETVLEGMLRELREETGLKVPKPVLQGSIVENRVFDAPQRSQRGRIITHAFCIHLKPGPLPSVRGGDDAEKAWWMSLADLYAHEDQFFEDHFQIIQHFVSRT”, which “soluble on expression in E. coli” value is on record?
A: The value was “not soluble”.

Q: Which “soluble on expression in E. coli” value does the source give for “MKKKLVGVECLNEYICQSSNKLYADSSVILTPGARDELSRRGVTVVYGPRPESGEAPAACPPGCTCPACTAAKADSGLEQLLFAVAAMLKTEYGITDPEELKNLSCQALRTIKANL” here?
A: The value was “not soluble”.

Q: With “MIICKTPREIEIMREAGRIVALTHQELKQHITPGITTKELDQIAEKTIQKYGATPSFKGYNGFPGSICASVNEELVHGIPGKRKLKEGDIISIDIGAKYNGYHGDSAWTYPVGNISESVQKLLDVTEKSLYLGLEQVKPGERLSNISHAVQTHAEENGFSIVREYVGHGIGQDLHEDPQIPHYGPPNRGPRLKPGMVICVEPMVNQGRRYVKTLSDDWTVVTVDGKWCAHFEHTIALTEAGYEILTTL” as the sequence, how does the “soluble on expression in E. coli” value read?
A: The value was “soluble”.

Q: Which “soluble on expression in E. coli” value does the source give for “VGPKTGEENQVLVPNLNPTPENLEVVGDGFKITSSINLVGEEEADENAVNALREFLTANNIEINSENDPNSTTLIIGEVDDDIPELDEALNGTTAENLKEEGYALVSNDGKIAIEGKDGDGTFYGVQTFKQLVKESNIPEVNITDYPTVSARGIVEGFYGTPWTHQDRLDQIKFYGENKLNTYIYAPKDDPYHREKWREPYPESEMQRMQELINASAENKVDFVFGISPGIDIRFDGDAGEEDFNHLITKAESLYDMGVRSFAIYWDDIQDKSAAKHAQVLNRFNEEFVKAKGDVKPLITVPTEYDTGAMVSNGQPRAYTRIFAETVDPSIEVMWTGPGVVTNEIPLSDAQLISGIYNRNMAVWWNYPVTDYFKGKLALGPMHGLDKGLNQYVDFFTVNPMEHAELSKISIHTAADYSWNMDNYDYDKAWNRAIDMLYGDLAEDMKVFANHSTRMDNKTWAKSGREDAPELRAKMDELWNKLSSKEDASALIEELYGEFARMEEACNNLKANLPEVALEECSRQLDELITLAQGDKASLDMIVAQLNEDTEAYESAKEIAQNKLNTALSSFAVISEKVAQSFIQEALSFDLTLINPRTVKITASSEETSGENAPASFASDGDMNTFWHSKWSSPAHEGPHHLTLELDNVYEINKVKYAPRQDSKNGRITGYKVSVSLDGENFTEVKTGTLEDNAAIKFIEFDSVDAKYVRLDVTDSVSDQANGRGKFATAAEVNVHG” here?
A: The value was “soluble”.

Q: Which “soluble on expression in E. coli” value does the source give for “SVRTACKSRAVSSGKQTGKWQSWSDAGVLTVFECEGLKLILNTWTPIPFSPFPVHHLFTPMLIGRLCGTRIETLALIHGGISLPATALRSPNSGVKLPLLVSPLFPMETTPSALRLLSSHKAESGSPTLFTLVHLLPLLLQ” here?
A: Its value is “soluble”.

Q: Which “soluble on expression in E. coli” value does the source give for “MSLTASPIVVFDLDGTLIDTAPDLINALNFILVREGMPAVPMAVARNMIGQGARRLLERGLELDGRVIAQDDVNRLTVDFIDYYAAHIADESRPFEGLEATLDELSESGYRFAVCTNKLEWLSKLLLDRLGLSPRFAAICGADTFGVAKPDPAILRETVAKAGGDLSAAIMVGDAGPDVGVARRAGVPVIGVEFGYTEVPIAELQPDLLVGHMRELPNAVGRLLPRREGHHHHHH” here?
A: Its value is “soluble”.

Q: With “MMMLPEACIANILAFTSPADAFSSSEVSSVFRLAGDSDFVWEKFLPSDYKSLISQSTDHHWNISSKKEIYRCLCDSLLIDNARKLFKINKFSGKISYVLSARDISITHSDHASYWSWSNVSDSRFSESAELIITDRLEIEGKIQTRVLSANTRYGAYLIVKVTKGAYGLDLVPAETSIKSKNGQISKSATYLCCLDEKKQQMKRLFYGNREERMAMTVEAVGGDGKRREPKCRDDGWMEIELGEFETREGEDDEVNMTLTEVKGYQLKGGILIDGIEVRPKT” as the sequence, how does the “soluble on expression in E. coli” value read?
A: The value was “soluble”.

Q: With “MKTISNEQLTIQVSPHGAELCSIFANGKEYLWQADPAFWKRHSPVLFPIVGSVWENQYRNEGIAYTLSQHGFARDMEFTLVSEKEDEVRYHLVSNEETLRKFPFPFCLEIGYRIQGKQIEVIWEVKNTGEKEMYFQIGAHPAFYWPDFNADTQNRGFFGFDKEEGLKYILISEKGCADPSTEYSLELTDGLLPLDTHTFDKDALIIENEQIHKVTLYTKEKKAYLSLHFHAPVVGLWSPPAKNAPFVCIEPWYGRCDRAHYTGEYKDKDWMQHLQPEETFRGGYTIEIDELEHHHHHH” as the sequence, how does the “soluble on expression in E. coli” value read?
A: Its value is “not soluble”.

Q: With “GMSAGQSSLSFAHGDETHPIEQKAFIGVDSAAGNVVKQFHAALQMGNEAIVRQSLAANVQIYEGGKVERSLTEYANHHMLADMAYLKGLTITPKEHQITITGDIAISTSISHAQGEYKGKSIDSMTMETLVLIKQADGRWKITHVHWS” as the sequence, how does the “soluble on expression in E. coli” value read?
A: Its value is “soluble”.

Q: For “MSENLHTIIHHVDFFPLRIRVFRNGDMFDHGRILVVTRKQFKHWIVFLDALTDLLRTATAVRRLFTTQGIPVHHFDDLETNGEYVAVETGPFVNVPYGQARFTLRLKRYNPIIRAPELIPTFLHSAESMDIYLKKEGYGTITGLPYPFDGILSRSPSASNIQIKHLQSHHIPPLKIGGSMEHLNELGTASWLGKNEKWMMGERVKLETQSQTLAQKSEKDEQIPRLDIKEVDGGSTTSEFMRNGEKSKSTTKLPRLLNSNRSFRREPVSAQKPPSEEPRSTSENLPPIDLKSIQISQNSQSTSQKKDSDTISIKTEEEVISILKPEKTTTESIVSSKISRKNAPKDDDEVRFHRSYQVTETTYTTRNSDETDRRKPENVEKTVESKNDRSVQDKSEKIEKKVPEKLSKPQKTETTKSKERAKWADQGNTTLKREKSIEKSTRQGKIDKSIEKLIDKSIDNTEKLSSQKPKIDMAKGELRKFDVDINEIPIRFEGPMVNKSRINTSRIVTSRSTTNLFVDEIVNEDELDDVIERAQLWDLNRRRQNMRQQHTQTSGSLCRSISAPRRRVVLFDPDFD”, which “soluble on expression in E. coli” value is on record?
A: Its value is “not soluble”.

Q: Which “soluble on expression in E. coli” value does the source give for “MVRIRWFFIRHAESEANVVERWRIAGRSEAARLTERGERQARVVGEAVAIRLEQVLRVDGGDAGGVSGDAGRRRVLAPVAFTSPLLRARQTAALVLEQVAQPVKLEPVDDLAEVYQGLWEDALRSEVHTPETLQAMARNPYEFRAPGGEAQADVERRVLRAVSRMSQRVLSLLSLELEENEQTDVIVLVFTHGYVCKCLIRSVLDASPHLTGQIQVDNGALVELWLEPAAQQGALTSAAELGMWTVLRINDTWGQLTASMR” here?
A: Its value is “not soluble”.

Q: With “MAHHHHHHMASVSSGVPLTAPSAQKLLQSVKYILLDVDGVVWSGPRVLPNIPQTLQYLRSLGKEIRFLTNNASVSRSSLAQLFRQRGIEGVKESEVYNSGYAAALRLRRICGAAEGNQERQEGNEPTSDKRLVRGNVFVIGEEGLHEELQRVLAPGYITYGMELHDAEKVGGYNSANAATAWKERILPAPLRQLKPPDGITDYGRGISLTDLSPVAVVVGLDLHFNMLKLAYASLCLHRGAGSNTDSEGDRIGGDRDRTPDKGLQKPVCFIATNEDPQIPIGEEGLLLPGAGGMVSALRTVSGRNPDAVCGKPHVDMARIMFEAEGITDARQCLMVGDRLTTDIAFGNAAGCRTLFVLSGAESMADIARAKSTGDSQLLPEFVAPSLASLMPDARDD” as the sequence, how does the “soluble on expression in E. coli” value read?
A: The value was “soluble”.
